Measured values published in the RNAGym collection of RNA variant scans (doi:10.1073/pnas.2313332121).
Fewer inactive variants are shown than the library holds.

B1: TPR 5TU (parent)
chain: GGAUCUUCUCGAUCUAACAAAAAAGACAAAUCUGCCACAAAGCUUGAGAGCAUCUUCGGAUGCAGAGGCGGCAGCCUUCGGUGGCGCGAUAGCGCCAACGUUCUCAACUAUGACACGCAAAACGCGUGCUCCGUUGAAUGGAGUUUAUCAUG

Variants of: B1
Test: polymerase ribozyme fitness, log enrichment relative to wild type (log ratio); higher = more active; in vitro selection for triplet polymerase activity
Procedure, shortened: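 One round of in vitro selection, in triplicate, was applied to PCR-built, transcribed mutant libraries of each subunit of a heterodimeric triplet polymerase ribozyme. The steps were annealing with a biotinylated primer, partner subunit and triplets, incubation frozen at −7 °C, gel excision of extended constructs, streptavidin-bead capture and RT-PCR. Fitness is the logarithm, base 2, of genotype enrichment over wild-type enrichment from inverse-variance-weighted replicate averages of Illumina-sequenced inputs and outputs, keeping genotypes with ≥10 input reads and ≥1 read per output.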

| Variant | polymerase ribozyme fitness (log ratio) |
| --- | --- |
| C8G G11C C14U G50C C95U C132A U135A A137C | ≤ -4.2 |
| C18U C87U C99U A119G C125G U135G | ≤ -4.2 |
| A49U A73U G88A C105A U144A | ≤ -4.2 |
| A66U G94A G100U U148G | ≤ -4.2 |
| A21C U61G C85U | 0.133 |
| A24U G50U G59A | 0.438 |
| G48A U56A U109G | -1.39 |
| A21C U56A C93A A121C U146G C149U | -2.29 |
| A91G C118U | -3.15 |
| C5U C18U C76G C105U U148A | ≤ -4.2 |
| A22U A24U U44A C93A C96U C118U | ≤ -4.2 |
| A26U A49C | ≤ -4.2 |
| C36G C87U A106U | ≤ -4.2 |
| C57U A66G | -3.4 |
| U135G | -3.19 |
| C108U G136U | -3.41 |
| C54U G59A G70C | -2.48 |
| C10A A12G A60G C93A | ≤ -4.2 |
| A98U A107U C125A A147G | ≤ -4.2 |
| A19G G84A | -1.52 |
| C69G G84A U101C | -2.05 |
| A39C C93U | -3.4 |
| U13G C32A G86C A107G C125G U135A | ≤ -4.2 |
| C27A C54G G67U G84C | ≤ -4.2 |

| Variant | polymerase ribozyme fitness (log ratio) |
| --- | --- |
| G48A C69G G84U | -2.41 |
| U77A G94A G140A | ≤ -4.2 |
| C99A U134G | -2.57 |
| U45G G50A C87A C103U G124A | ≤ -4.2 |
| A20G U53A | -1.01 |
| C38A U56A G128U | -3.69 |
| A26C A137G U144A | -4.13 |
| G50C G86A | ≤ -4.2 |
| A29C A37U C108U | -4.09 |
| A20U G67C | ≤ -4.2 |
| C38A G58A A60G C93U C95A C125G | -3.67 |
| A3C C79U C93U C95U | ≤ -4.2 |
| A66G C85U | -3.45 |
| C57U C85U C87U U144G | -0.0249 |
| C8G A22U C85U C103U | ≤ -4.2 |
| C85G G92U A138U U145A | ≤ -4.2 |
| C27U A52G G92A C96U G133A | ≤ -4.2 |
| A22C C36U C51A C75G C87U | ≤ -4.2 |
| U13G C69A | ≤ -4.2 |
| A16G U56A | -1.7 |
| U9C A24U A41G C75U G83A G84A C93A | ≤ -4.2 |
| A17U C72U C99U | -1.38 |
| C57G G58U C93A | -1.39 |
| G83A C108U | -3.01 |

| Variant | polymerase ribozyme fitness (log ratio) |
| --- | --- |
| A30G A52C U53C C93A G100C C132A | ≤ -4.2 |
| C54U U90C G94A C131U | ≤ -4.2 |
| A12G U44A G46A A66C G86A C93A A97U A138G A142G | ≤ -4.2 |
| U56A A107U | -2.87 |
| C87U C131A G140A | -3.61 |
| G68A C87G G128U | ≤ -4.2 |
| G59A A142G | -0.65 |
| G83C C132G | ≤ -4.2 |
| A37G C85U G88C C95U | ≤ -4.2 |
| U55A C95U | -0.137 |
| A24U U56A | 0.265 |
| C8A A40U G42A G68A C85U U144G | ≤ -4.2 |
| C93A U102A A137C | ≤ -4.2 |
| A47U U77C | -4.09 |
| U55A G83A G124A | -0.748 |
| C75G G84A A107U A121U U151C | ≤ -4.2 |
| G58C A106C | 0.355 |
| A37G A41G C79A G92U C95U C123U | ≤ -4.2 |
| A41U A49C C96G A113G U135C C149U | ≤ -4.2 |
| A26U C75U U148G | ≤ -4.2 |
| A37C A52U C132U | -4.13 |
| A40U G92U A98C C103G A120C U134A | -3.87 |
| C79U U134A | -4.05 |
| C38A A89G C95G G124A | -2.76 |

| Variant | polymerase ribozyme fitness (log ratio) |
| --- | --- |
| G50C A98G | -3.37 |
| A30U U55G C63U A110U G126U | -4.07 |
| C8U C79A G92A C105A | ≤ -4.2 |
| A52G G83A | -0.0714 |
| A26G C27U A47G C54A U56G G86A | ≤ -4.2 |
| A41C U56A C57A A115U C116U | -2.62 |
| C18G G86A C87A A91C A120C | ≤ -4.2 |
| G50A U61A G81U G83C A91U U104G G143A | ≤ -4.2 |
| A26U C85U C105U | -1.82 |
| A3G A47G U61A G94U C99A C108U U135G | ≤ -4.2 |
| A3C C51G U55G C75U C118A | ≤ -4.2 |
| A41G C75U C93G | -2.6 |
| G86U G92C A98G A150U | -2.26 |
| U44A G48C G59A U82C C116G C123U U134C | ≤ -4.2 |
| C43U A47C U56A U78G C87G | ≤ -4.2 |
| A24G C38G A40U A110C | ≤ -4.2 |
| A24U U77A G92A C125G | ≤ -4.2 |
| C87A C103U C108A A110C C132A | ≤ -4.2 |
| C76A C85G | -3.53 |
| A22U A30G C85G U104A C105A U111G | ≤ -4.2 |
| U33A C75G U78A U101A G152U | -4.02 |
| A26C G59U A89C A113G C132G G141U | ≤ -4.2 |
| C14G A60U G86U | ≤ -4.2 |
| U55A U146G | -0.637 |

| Variant | polymerase ribozyme fitness (log ratio) |
| --- | --- |
| U55A A66U C79U G80C C87G C116U U145G | ≤ -4.2 |
| U78G C85G G140A | ≤ -4.2 |
| C8A C116U U135C A150G | ≤ -4.2 |
| G86A U90G | ≤ -4.2 |
| A20G C27G A29U A97G A120G U146G | -4.06 |
| G59A G83U G84A | -1.23 |
| U55G A89G G94A A119U | -1.9 |
| A110G C149G | -3.83 |
| A60C U61A | -2.27 |
| A47U C57U | 0.131 |
| C14G C75A G84U | -4.14 |
| U55A G71A G81C C95G C125U | ≤ -4.2 |
| U44G C57G A91U A107G C125U U130C U135G | ≤ -4.2 |
| A29C G84A | -4.17 |
| A22G C32U A120G C125U | -3.24 |
| C57U G126A A138U | -3.43 |
| C57U G80A | -0.314 |
| A30C C96G | -4.03 |
| G58C U82A G143C | -1.86 |
| A22C A29C G68A G81A C85A C105G A142U | ≤ -4.2 |
| A73G U101C | 0.659 |
| A37U C72A C95U | ≤ -4.2 |
| C10G C18G U55C C57U U61A | -4.15 |
| A52C C96A C118G C125A | -2.23 |

| Variant | polymerase ribozyme fitness (log ratio) |
| --- | --- |
| A22U C36G C105G | ≤ -4.2 |
| U90A C99U U111C | -4.13 |
| G48A C85G C125G | -4.1 |
| C5U U45A A47C G62U C69U | ≤ -4.2 |
| C76U C87A A91G A107U G126A U145A | ≤ -4.2 |
| A21U A29C C95A U101G G126C U135G G143U | ≤ -4.2 |
| A3U G133U U135G | ≤ -4.2 |
| C27U C35U A49U C51G U53A G86U U151G | ≤ -4.2 |
| C57U U101G | -0.262 |
| G83U A89C | -0.953 |
| G11C C57G U82A G83U G141U | -2.65 |
| A89C G124A | -1.59 |
| C63U C85U | -0.275 |
| C35U U146C | 0.279 |
| U53A C132U | -1.73 |
| U102G | -2.51 |
| C10U G84U | -4.13 |
| C38U G70A C95A C99U A107U | ≤ -4.2 |
| A21U A39U U61G G92U C108A G141A | ≤ -4.2 |
| G83C A107C | ≤ -4.2 |
| C14U A28U A52C G88U A91G C96U U134G G140U | ≤ -4.2 |
| A60C A120U A137C G140U | ≤ -4.2 |
| G50A A64G | -3.77 |
| A66G C96U | -3.66 |

| Variant | polymerase ribozyme fitness (log ratio) |
| --- | --- |
| A52G G92C | -1.46 |
| G50A G136U | -2.96 |
| G48U U56A G67A A73C G86U A107G | ≤ -4.2 |
| A17G C129G | -3.57 |
| C32U C96G | -1.58 |
| G94U G140U | -3.84 |
| C5A C54U A73G A119G G136A | -0.371 |
| A16U A49G | -1.93 |
| U31C C32A G80C G81A A115C C118G G133A | ≤ -4.2 |
| U127A G128U | -3.18 |
| G58C G84U A97U | -3.58 |
| A20C U55A A89G G94C C95A C108G C123G | ≤ -4.2 |
| U45A U77G G86U U104A C123A | ≤ -4.2 |
| A37U A60G A91G G143C | ≤ -4.2 |
| C10G A28C C51U C87U G88A A91C G117C G124U U130G | ≤ -4.2 |
| A26C C85A G94C | -1.83 |
| U56A A73C G84U U127C | ≤ -4.2 |
| A16U A26C G84A | -3.52 |
| A3U G58C G59C C96U C131A | -3.63 |
| C32U U55A C63U C118A | -3.08 |
| G50U C72A A89C G92A C129A A137G A150U | ≤ -4.2 |
| C5G C54A G58C A73G C79A C87U C116A A138G | ≤ -4.2 |
| U55A U56A C69U C79U G86A A91U A106C A121G C125U A142C | ≤ -4.2 |
